The record followed here is patent publication US20090042805.

The target of data set [1] is T1, Z-VDVAD-FMK.
T1 chain: VDVAD

In data set [2] the target is SEQ8.
Data set [3] has as its target T2, Ac-VDVAD-cho.
T2 chain: VDVAD

B1: Human recombinant caspase-2 (protein)
chain: GPVCLQVKPCTPEFYQTHFQLAYRLQSRPRGLALVLSNVHFTGEKELEFRSGGDVDHSTLVTLFKLLGYDVHVLCDQTAQEMQEKLQNFAQLPAHRVTDSCIVALLSHGVEGAIYGVDGKLLQLQEVFQLFDNANCPSLQNKPKMFFIQACRGDETDRGVDQQDGKNHAGSPGCEESDAGKEKLPKMRLPTRSDMICGYACLKGTAAMRNTKRGSWYIEALAQVFSERACDMHVADMLVKVNALIKDREGYAPGTEFHRCKEMSEYCSTLCRHLYLFPGHPPT
On to B1, for which the “in vitro VDVAD-AMC cleavage by recombinant caspase-2” value in data set [1] is given as “as efficiently as commercially available caspase-2 reversible (Ac-VDVAD-Cho) or irreversible (Z-VDVAD-FMK) inhibitors”; in data set [2], “is blocked by SEQ8”; in data set [3], “as efficiently as commercially available caspase-2 reversible (Ac-VDVAD-Cho) or irreversible (Z-VDVAD-FMK) inhibitors”.
